Laboratory results: article PMC8489103, “The collagen structure of C1q induces wound healing by engaging discoidin domain receptor 2” (Molecular Medicine, 2021)
Where no end group is shown, it is not given here. The star is where a group is joined. Biotin = O=C1N[C@H]2[C@H](CS[C@H]2CCCCC(=O)*)N1

T1: NS0-derived recombinant mouse DDR2-Fc chimera protein (mouse, UniProt Q62371 24-399)
T1 construct: discoidin domain receptor 2 (DDR2), mouse, ectodomain Gln24-Arg399; also called 7479-DR; source: bought: R&D Systems (7479-DR), NS0-derived; not shown: Fc (mouse IgG2A, Glu98-Lys330), C-terminal, kept
T1 sequence (looked up): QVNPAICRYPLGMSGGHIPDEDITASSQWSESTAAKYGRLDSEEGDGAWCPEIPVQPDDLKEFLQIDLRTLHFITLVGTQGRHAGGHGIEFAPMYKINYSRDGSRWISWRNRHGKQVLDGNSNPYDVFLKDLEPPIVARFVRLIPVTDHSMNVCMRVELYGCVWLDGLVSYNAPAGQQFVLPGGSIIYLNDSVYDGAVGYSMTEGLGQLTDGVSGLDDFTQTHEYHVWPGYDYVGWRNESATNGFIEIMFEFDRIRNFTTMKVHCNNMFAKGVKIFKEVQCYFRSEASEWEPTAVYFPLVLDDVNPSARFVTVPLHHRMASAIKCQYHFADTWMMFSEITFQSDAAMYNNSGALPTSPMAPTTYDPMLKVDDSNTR

B1: Recombinant human DDR2 possessing the ectodomain of DDR2 (Gln24-Arg399) with 6 × His-tag on C-terminal (domain or fragment, UniProt Q16832 24-399, looked up)
chain: QVNPAICRYPLGMSGGQIPDEDITASSQWSESTAAKYGRLDSEEGDGAWCPEIPVEPDDLKEFLQIDLHTLHFITLVGTQGRHAGGHGIEFAPMYKINYSRDGTRWISWRNRHGKQVLDGNSNPYDIFLKDLEPPIVARFVRFIPVTDHSMNVCMRVELYGCVWLDGLVSYNAPAGQQFVLPGGSIIYLNDSVYDGAVGYSMTEGLGQLTDGVSGLDDFTQTHEYHVWPGYDYVGWRNESATNGYIEIMFEFDRIRNFTTMKVHCNNMFAKGVKIFKEVQCYFRSEASEWEPNAISFPLVLDDVNPSARFVTVPLHHRMASAIKCQYHFADTWMMFSEITFQSDAAMYNNSEALPTSPMAPTTYDPMLKVDDSNTR
notes: discoidin domain receptor 2 (DDR2), human, ectodomain Gln24-Arg399; also called sDDR2; sDDR; source: bought: R&D Systems (2538-DR); not shown: 6xHis, C-terminal, kept
B2: C1qA peptide (Biotin-GSKGEQGEPGAPGI) (peptide)
peptide: Biotin-GSKGEQGEPGAPGI
notes: first two residues of the printed peptide; also called C1q collagen tail peptide; biotinylated C1qA peptide; source: synthetic peptide (GenScript)

Assays:
Conditions in all cases: both partners purified
human C1q protein = molecular target: T2, human C1q protein (human, UniProt P02745 23-245; P02746 28-253; P02747 29-245); assay: SPR; Biacore 3000; sDDR2 immobilised on CM5 chip; C1q 0, 2.5, 5, 10, 20, 40 μg/mL as analyte; 10 mM HEPES pH 7.4, 25 °C, 10 μL/min
T2 construct: complement C1q subcomponent subunit A, human; complement C1q subcomponent subunit B, human; complement C1q subcomponent subunit C, human; the bought protein is purified from human serum; source: bought: Sigma-Aldrich (C1740); for stimulation of cells Complement Technologies (A099); copies: + +

[1] = molecular target: T1, NS0-derived recombinant mouse DDR2-Fc …; assay: far-Western, overlay or dot blot; DDR2-Fc, DDR1-Fc or Fc (20 μg per spot) blotted on nitrocellulose; biotinylated C1qA peptide (200 nM) in 3% skim milk, RT, 2 h; detected with streptavidin
[2] = molecular target: B1; assay: ELISA; C1qA peptide or control peptide coated at 8 μg/mL; sDDR2 (0.1, 0.5, 2, 8 μg/mL) added, RT, 2 h; detected with AP-conjugated anti-6x-His

T2 sequence (P02745 23-245, chain 1 of 3): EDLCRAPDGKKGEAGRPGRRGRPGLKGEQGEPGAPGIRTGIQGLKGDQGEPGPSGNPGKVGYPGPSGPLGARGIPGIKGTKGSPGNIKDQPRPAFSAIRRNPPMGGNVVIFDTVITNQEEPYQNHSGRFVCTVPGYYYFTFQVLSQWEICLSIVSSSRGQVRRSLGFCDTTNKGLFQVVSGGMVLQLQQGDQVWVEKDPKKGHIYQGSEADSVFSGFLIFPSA
T2 sequence (P02746 28-253, chain 2 of 3): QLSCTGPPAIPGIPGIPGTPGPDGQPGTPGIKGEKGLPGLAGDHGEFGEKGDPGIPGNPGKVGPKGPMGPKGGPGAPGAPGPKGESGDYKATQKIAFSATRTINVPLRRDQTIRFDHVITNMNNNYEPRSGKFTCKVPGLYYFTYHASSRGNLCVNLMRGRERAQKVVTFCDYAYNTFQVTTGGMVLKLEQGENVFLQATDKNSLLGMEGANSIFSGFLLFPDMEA
T2 sequence (P02747 29-245, chain 3 of 3): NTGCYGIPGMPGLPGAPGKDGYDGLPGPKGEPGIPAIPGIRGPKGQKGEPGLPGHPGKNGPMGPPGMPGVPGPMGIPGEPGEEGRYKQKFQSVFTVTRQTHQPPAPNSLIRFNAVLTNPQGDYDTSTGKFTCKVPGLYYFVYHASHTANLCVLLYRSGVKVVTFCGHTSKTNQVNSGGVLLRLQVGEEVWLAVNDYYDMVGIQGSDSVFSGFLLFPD

| Kd (human C1q protein) [µM] | binding result [1] | binding result [2] | Binder |
| --- | --- | --- | --- |
| 0.183 | – | – | B1 |
| – | binds | binds | B2 |
